Experiments:
AP2μ-eCFP fusion = AP2μ-eCFP fusion (UniProt Q96CW1); assay: FACS-based FRET assay; conditions: 293T cells cotransfected with Nef-YFP and AP2µ-CFP, measured 24 hours later
[1] = target: AP2μ-eCFP fusion (human (HeLa cDNA library)) (UniProt Q96CW1); assay: FRET or BRET; FACS-based FRET; 293 T cells cotransfected with Nef-YFP fusion vectors and AP2μ-CFP; 24 hours later the amount of cells scoring FRET+ measured by flow cytometry
[2] = mean and SD of four to nine independent transfections, parent: est. 62, read off a plot

Substance	response (% FRET+ cells) (AP2μ-eCFP fusion; [2])	response (% FRET+ cells) (AP2μ-eCFP fusion; representative single FACS plot (upper row of panel A), parent: 69.8)	percent of FRET+ cells (mean) [1] [%]
SIVmac 239 Nef-YFP Y28F	32	38.1	–
SIVmac 239 Nef-YFP Y28A	26	–	–
HIV-2 Ben Nef-YFP (natural protein)	–	–	< 35
SIVmac 239 Nef-YFP G2A	3	–	–
SIVsm FFm1 Nef-YFP (natural protein)	–	–	< 35

Reference: paper PMC3892060
